In patent US20210309747A1 (I MAB BIOPHARMA US, published 2021):

Legend:
[1] = target: T1, human PD-L1 on Raji cells (human, UniProt Q9NZQ7 19-290); assay: cell-based or functional assay
[2] = target: T1, human PD-L1 on Raji cells; assay: flow cytometry blocking assay on Raji-PDL1 cells; blocked ligand: biotinylated Avi- and His-tag human PD1 protein at 3 ug/mL, Streptavidin-PE, MFI
Procedure: Raji cells over-expressing human PDL1 were seeded into the 96 well plate at a concentration of 1×10⁵ cells per well. […] Fluorescence was measured by flow cytometry and analyzed by Flowjo software to determine the mean fluorescence intensities (MFI).

[3] = target: T2, His-tagged human PD-L1 (human, UniProt Q9NZQ7 19-238, limits assumed); assay: Biacore T200 SPR, B12-01 captured on a protein A chip, human PD-L1-His injected at 25 nM-1.56 nM
T2 construct: also called Human PD-L1 protein; Human PDL1-His; not shown: His tag
Text: (§1) The ligand was allowed to associate for 120 s and dissociate for 600 s.

[4] = target: T3, mouse PDL1-His (mouse, UniProt Q9EP73 19-238, limits assumed); assay: ELISA, PDL1-His coated at 0.5 µg/ml
T3 construct: not shown: His tag
Procedure: (§2) Human, cyno, rat and mouse PDL1-His proteins were coated at 0.5 μg/ml at 4° C. overnight. […] The plates were washed and then incubated with HRP conjugated mouse anti-human IgG Fc antibody followed by development with TMB substrate and analyzed by spectrophotometer at OD 450 nm.

[5] = target: rat PDL1-His (rat, UniProt D4AE25 19-239); assay: ELISA, PDL1-His coated at 0.5 µg/ml
Procedure: as §2

[6] = target: T2, His-tagged human PD-L1; assay: SPR, Biacore T200; B12-01 captured on protein A chip, human PD-L1 25 nM-1.56 nM injected
Text: as §1

[7] = target: T2, His-tagged human PD-L1; assay: ELISA, plate coated with PDL1-His at 0.5 ug/ml, detection with HRP mouse anti-human IgG Fc, OD 450nm
Procedure: as §2

[8] = target: cyno PDL1-His (cyno, UniProt G7PSE7 19-238); assay: as above
Procedure: as §2

T2 sequence (Q9NZQ7 19-238 limits assumed): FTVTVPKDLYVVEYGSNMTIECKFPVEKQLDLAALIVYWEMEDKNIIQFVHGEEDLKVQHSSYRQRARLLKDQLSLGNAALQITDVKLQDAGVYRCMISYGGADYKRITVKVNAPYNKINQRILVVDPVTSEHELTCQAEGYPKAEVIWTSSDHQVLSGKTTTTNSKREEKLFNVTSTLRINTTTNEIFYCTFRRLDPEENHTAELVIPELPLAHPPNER
T1 sequence (Q9NZQ7 19-290): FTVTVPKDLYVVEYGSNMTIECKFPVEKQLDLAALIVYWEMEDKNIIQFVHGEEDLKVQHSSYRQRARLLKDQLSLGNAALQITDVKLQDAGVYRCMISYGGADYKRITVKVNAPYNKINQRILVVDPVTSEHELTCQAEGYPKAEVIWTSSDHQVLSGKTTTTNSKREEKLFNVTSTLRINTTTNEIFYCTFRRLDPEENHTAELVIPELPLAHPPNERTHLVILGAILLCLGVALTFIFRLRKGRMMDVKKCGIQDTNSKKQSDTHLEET
T3 sequence (Q9EP73 19-238 limits assumed): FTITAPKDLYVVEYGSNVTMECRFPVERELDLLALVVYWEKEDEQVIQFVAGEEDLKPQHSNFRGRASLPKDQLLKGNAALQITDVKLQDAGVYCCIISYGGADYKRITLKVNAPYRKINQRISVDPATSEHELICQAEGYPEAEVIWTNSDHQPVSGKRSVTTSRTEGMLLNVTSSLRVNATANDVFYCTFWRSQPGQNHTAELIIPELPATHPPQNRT
rat PDL1-His, sequence (D4AE25 entry or part of it limits assumed): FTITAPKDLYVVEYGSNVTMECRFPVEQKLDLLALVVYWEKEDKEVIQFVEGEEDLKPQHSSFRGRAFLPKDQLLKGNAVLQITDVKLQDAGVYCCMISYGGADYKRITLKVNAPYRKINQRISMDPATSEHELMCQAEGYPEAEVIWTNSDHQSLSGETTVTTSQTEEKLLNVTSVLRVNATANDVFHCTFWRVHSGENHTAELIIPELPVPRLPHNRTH
cyno PDL1-His, sequence (G7PSE7 entry or part of it limits assumed): as the sequence (Q9NZQ7 19-238 limits assumed) above, with A33T, A34S, S62N, R68Q, Q82R, F173L, T185A, T192I, H215L counted along it

B1: B12-01 (antibody, V domains shown)
VH: QVQLLESGGGLVQPGGSLRLSCAASGFTFSSYWMSWVRQAPGKGLEWVANIKQDGSEKYYVDSVKGRFTISRDNAKNSLYLQMNSLRAEDTAVYYCARVALWDDAFDIWGQGTMVTVSS
VL: DIQMTQSPSTLSASVGDRVIITCRASRGISSWLAWYQQKPGKAPNLLISKASSLESGVPSRFSGSGSGTDFTLTISSLQPEDFATYYCQQSSSIPLTFGGGTKVEIK
notes: Variant of B12 with serine at the C-terminus of VH and DIQM at the N-terminus of VL; captured on protein A and detected with anti-human IgG Fc, so a human IgG; also called B12-01 antibody
**Q.** With B1 as the binder, how does the “EC50, NF-AT-luciferase activity, PD-1 Jurkat cells with Raji-PD-L1 cells” value [1] read?
**A.** 0.098 nM

**Q.** What about the EC50 [2] of the same binder?
**A.** 0.14 nM

**Q.** What about the koff [3] of the same binder?
**A.** 0.000795 s⁻¹

**Q.** What about the kon [3] of the same binder?
**A.** 838000 M⁻¹ s⁻¹

**Q.** Does B1 bind [4]?
**A.** no binding

**Q.** Does B1 bind [5]?
**A.** no binding

**Q.** And the Kd [6]?
**A.** 0.948 nM

**Q.** What about the “EC50 (read off the curve)” value [7] of the same binder?
**A.** ~0.03 nM

**Q.** What about the “EC50 (read off the curve)” value [8] of the same binder?
**A.** ~0.04 nM
